Measured values reported in US20150306174A1 (NEW YORK BLOOD CENTER, published 2015).
Ends that are not written are not given here.

B1: N28Fd trimer (designed binder)
chain: IEAQQHLLQLTVWGIKQLQARILAVERYGYIPEAPRDGQAYVRKDGEWVLLSTFL
modifications: also: trimer
notes: It gives the full length as 55 residues; also called FdN28Fd1
B2: N28 (peptide)
peptide: IEAQQHLLQLTVWGIKQLQARILAVERY
notes: Residue numbers count on HIV-1 HXB2 gp160; also called N28 peptide; free N28 peptide

How the values were obtained:
[1] = biological target: T1, C34 (HIV-1); assay: CD thermal denaturation monitored at 222 nm
T1 construct: also called CHR-peptide C34; C-peptide C34

[2] = biological target: T1, C34; assay: CD spectroscopy of the N-peptide/C-peptide mixture in PBS

Binder	Tm of the complex [1] [° C.]	binding result [2]
B1	62.2	–
B2	–	no binding (tested: 10 µM)
